Assays:
[1] = molecular target: WT/M2345 IRSp53 heterodimer (human (from the printed UniProt entry)) (UniProt Q9UQB8); test: co-IP; homo- and heterodimers of wild-type and M2345 IRSp53 (FLAG and STREP tags, single plasmid with IRES) from HEK293T cells; endogenous 14-3-3 detected by blot, relative to WT-IRSp53-FLAG/WT-IRSp53-STREP
[2] = molecular target: M2345/WT IRSp53 heterodimer (human (from the printed UniProt entry)) (UniProt Q9UQB8); test: as above
Chain of M2345/WT IRSp53 heterodimer (human (Q9UQB8 other isoform, or with tags, fused parts or gaps T340A | T360A | S366A | 452SSST455 -> AAAA, chain 1 of 2): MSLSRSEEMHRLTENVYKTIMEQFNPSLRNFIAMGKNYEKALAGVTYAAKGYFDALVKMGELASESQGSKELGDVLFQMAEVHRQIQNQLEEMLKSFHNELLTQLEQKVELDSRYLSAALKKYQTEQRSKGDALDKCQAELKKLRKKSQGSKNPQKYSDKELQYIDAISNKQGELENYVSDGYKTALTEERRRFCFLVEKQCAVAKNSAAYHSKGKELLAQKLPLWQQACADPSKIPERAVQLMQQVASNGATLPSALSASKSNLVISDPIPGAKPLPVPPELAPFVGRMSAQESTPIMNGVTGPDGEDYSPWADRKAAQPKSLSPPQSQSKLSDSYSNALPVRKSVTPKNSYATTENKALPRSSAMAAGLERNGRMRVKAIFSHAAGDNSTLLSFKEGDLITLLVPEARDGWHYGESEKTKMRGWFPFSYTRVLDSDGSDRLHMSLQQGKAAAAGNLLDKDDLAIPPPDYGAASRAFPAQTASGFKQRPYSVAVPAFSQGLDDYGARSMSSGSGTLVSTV
Chain of M2345/WT IRSp53 heterodimer (human (Q9UQB8 other isoform, or with tags, fused parts or gaps, chain 2 of 2): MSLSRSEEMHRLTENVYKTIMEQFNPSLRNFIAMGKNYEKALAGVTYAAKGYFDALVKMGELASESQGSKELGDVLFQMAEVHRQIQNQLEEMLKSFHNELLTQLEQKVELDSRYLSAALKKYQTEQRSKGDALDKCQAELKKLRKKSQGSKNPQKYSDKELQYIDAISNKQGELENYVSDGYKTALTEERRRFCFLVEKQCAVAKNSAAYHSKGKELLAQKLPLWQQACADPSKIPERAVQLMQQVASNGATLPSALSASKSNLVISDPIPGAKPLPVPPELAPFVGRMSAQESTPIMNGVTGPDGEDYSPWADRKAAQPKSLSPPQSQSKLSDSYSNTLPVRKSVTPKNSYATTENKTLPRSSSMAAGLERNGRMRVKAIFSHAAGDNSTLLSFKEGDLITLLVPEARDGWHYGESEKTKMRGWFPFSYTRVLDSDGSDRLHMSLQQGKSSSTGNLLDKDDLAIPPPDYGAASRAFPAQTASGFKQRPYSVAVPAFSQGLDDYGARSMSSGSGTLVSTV

Chain of endogenous 14-3-3 (all isoforms included) (P27348 whole entry, canonical isoform): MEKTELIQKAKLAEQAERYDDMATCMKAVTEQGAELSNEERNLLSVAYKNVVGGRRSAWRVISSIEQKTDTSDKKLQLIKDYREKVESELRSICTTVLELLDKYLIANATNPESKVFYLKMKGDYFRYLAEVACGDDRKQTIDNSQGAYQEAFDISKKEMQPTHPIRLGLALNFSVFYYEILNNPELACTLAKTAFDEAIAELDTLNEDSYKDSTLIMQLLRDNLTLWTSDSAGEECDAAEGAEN

Substance: endogenous 14-3-3 (all isoforms included) (from UniProt P27348 1-245) (natural protein)
- percent of the amount that coimmunoprecipitates with WT/WT IRSp53 [1]: 50%
- percent of the amount that coimmunoprecipitates with WT/WT IRSp53 [2]: 50%
